Residues, ends and D or L forms follow the SMILES beside them.
What was measured:
Experiment in all cases: Recombinant HDAC µSPOT microarray binding assay;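 for Bottom (Value): Cellulose-bound peptide spots on slides incubated with six HDAC enzyme concentrations, binding intensity read, four-parameter variable-slope fit, EC50 is enzyme concentration giving half-maximal binding, in HEPES buffer pH 7.4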;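 for Bottom (dose-response curve fit): peptide spots on cellulose slides incubated with rising HDAC enzyme concentrations, imaged together, four-parameter logistic fit, EC50 is enzyme concentration giving half-maximal binding signal, two experiments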;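 for Bottom (dose-response fit): relative spot intensity from the six enzyme-concentration slides imaged together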;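 for Bottom (dose-response fit): slides with spotted peptides incubated with six HDAC concentrations in HEPES buffer pH 7.4, spot intensities fitted by four-parameter logistic, EC50 as enzyme concentration giving half-maximal binding signal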;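 for HillSlope (Value): Cellulose-bound peptide spots on slides incubated with six HDAC enzyme concentrations, binding intensity read, four-parameter variable-slope fit, EC50 is enzyme concentration giving half-maximal binding, in HEPES buffer pH 7.4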;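 for LogEC50 (M): slides with spotted peptides incubated with six HDAC concentrations in HEPES buffer pH 7.4, spot intensities fitted by four-parameter logistic, EC50 as enzyme concentration giving half-maximal binding signal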;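 for Top (Value): Cellulose-bound peptide spots on slides incubated with six HDAC enzyme concentrations, binding intensity read, four-parameter variable-slope fit, EC50 is enzyme concentration giving half-maximal binding, in HEPES buffer pH 7.4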;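 for Top (dose-response curve fit): peptide spots on cellulose slides incubated with rising HDAC enzyme concentrations, imaged together, four-parameter logistic fit, EC50 is enzyme concentration giving half-maximal binding signal, two experiments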;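 for Top (dose-response fit): relative spot intensity from the six enzyme-concentration slides imaged together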;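 for Top (dose-response fit): slides with spotted peptides incubated with six HDAC concentrations in HEPES buffer pH 7.4, spot intensities fitted by four-parameter logistic, EC50 as enzyme concentration giving half-maximal binding signal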
[1] = biological target: T1, HDAC1 (Homo sapiens, UniProt Q13547); details: µSPOT microarray, recombinant HDAC1, Fig. 3, X = Asuha; for HillSlope: Hill slope of the binding curve; for Bottom (dose-response fit): fitted bottom plateau of the binding curve; for Top (dose-response fit): fitted top plateau of the binding curve;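 for Bottom (dose-response fit): relative spot intensity from the six enzyme-concentration slides imaged together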;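 for Top (dose-response fit): relative spot intensity from the six enzyme-concentration slides imaged together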;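 for all read-outs here: slides with spotted peptides incubated with six HDAC concentrations in HEPES buffer pH 7.4, spot intensities fitted by four-parameter logistic, EC50 as enzyme concentration giving half-maximal binding signal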
T1 construct: HDAC1 (full length, C-terminal His tag, C-terminal FLAG tag, BPS Bioscience, cat. #: 50051); FLAG (C); purchased BPS Bioscience 50051
T1 sequence (Q13547 whole entry): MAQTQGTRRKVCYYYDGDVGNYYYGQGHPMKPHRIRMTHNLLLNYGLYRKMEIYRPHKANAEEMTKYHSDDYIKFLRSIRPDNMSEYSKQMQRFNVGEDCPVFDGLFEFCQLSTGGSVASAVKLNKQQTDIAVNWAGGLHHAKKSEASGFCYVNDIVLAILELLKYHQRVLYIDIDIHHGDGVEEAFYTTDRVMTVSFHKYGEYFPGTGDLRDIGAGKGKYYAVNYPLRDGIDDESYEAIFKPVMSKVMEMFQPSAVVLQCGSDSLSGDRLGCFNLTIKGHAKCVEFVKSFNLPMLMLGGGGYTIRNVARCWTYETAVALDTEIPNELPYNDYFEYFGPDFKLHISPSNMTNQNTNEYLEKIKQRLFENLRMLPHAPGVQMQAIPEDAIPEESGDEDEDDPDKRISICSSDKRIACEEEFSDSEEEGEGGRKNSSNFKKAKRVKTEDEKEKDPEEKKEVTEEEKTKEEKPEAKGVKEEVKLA

[2] = biological target: T2, HDAC2 (Homo sapiens, UniProt Q92769); details: HDAC2 microarray dose-response curve fit, X = Asuha, sheet Fig. 3 HDAC2; for Bottom (Value): bottom plateau; for Top (Value): top plateau;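 for all read-outs here: Cellulose-bound peptide spots on slides incubated with six HDAC enzyme concentrations, binding intensity read, four-parameter variable-slope fit, EC50 is enzyme concentration giving half-maximal binding, in HEPES buffer pH 7.4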
T2 construct: HDAC2 (full length, C-terminal His tag, BPS Bioscience, cat. #: 50002); purchased BPS Bioscience 50002
T2 sequence (Q92769 whole entry): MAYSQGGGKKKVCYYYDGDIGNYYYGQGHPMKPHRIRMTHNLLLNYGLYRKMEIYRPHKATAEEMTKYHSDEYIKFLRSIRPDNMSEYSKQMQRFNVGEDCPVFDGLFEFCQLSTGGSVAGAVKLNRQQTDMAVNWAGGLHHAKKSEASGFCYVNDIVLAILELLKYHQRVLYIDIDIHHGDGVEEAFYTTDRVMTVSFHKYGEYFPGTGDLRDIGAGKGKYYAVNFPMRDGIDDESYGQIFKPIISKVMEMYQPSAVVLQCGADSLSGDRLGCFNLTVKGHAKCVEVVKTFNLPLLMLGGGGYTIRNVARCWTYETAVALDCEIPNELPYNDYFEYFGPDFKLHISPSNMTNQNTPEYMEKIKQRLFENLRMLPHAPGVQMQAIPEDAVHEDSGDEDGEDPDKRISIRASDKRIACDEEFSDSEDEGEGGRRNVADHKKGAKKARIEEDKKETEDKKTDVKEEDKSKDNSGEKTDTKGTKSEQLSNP

[3] = biological target: T3, HDAC8 (Homo sapiens, UniProt Q9BY41); details: HDAC8 µSPOT microarray dose-response fit, X = Asuha, sheet Fig. 3 HDAC8; for Bottom: Bottom Value; for HillSlope: HillSlope Value; for Top: Top Value;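 for all read-outs here: peptide µSPOT slides incubated with varying HDAC enzyme concentrations, imaged signal intensity fitted by four-parameter variable-slope regression, EC50 is enzyme concentration giving half-maximal binding, pH 7.4 HEPES buffer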
T3 construct: HDAC8 (full length, C-terminal His tag, BPS Bioscience, cat. #: 50008); purchased BPS Bioscience 50008
T3 sequence (Q9BY41 1-377): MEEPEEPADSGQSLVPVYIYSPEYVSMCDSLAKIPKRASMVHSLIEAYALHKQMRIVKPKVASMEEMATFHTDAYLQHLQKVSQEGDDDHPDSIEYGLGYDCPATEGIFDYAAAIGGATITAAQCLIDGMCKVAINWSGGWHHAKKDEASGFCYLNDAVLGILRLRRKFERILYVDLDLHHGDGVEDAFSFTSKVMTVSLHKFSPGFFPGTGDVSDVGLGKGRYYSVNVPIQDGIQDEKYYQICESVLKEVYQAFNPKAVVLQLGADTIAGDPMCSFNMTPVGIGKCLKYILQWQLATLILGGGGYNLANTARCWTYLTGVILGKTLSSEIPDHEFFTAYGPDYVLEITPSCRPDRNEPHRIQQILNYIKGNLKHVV
Method: (§1) Experiments were performed twice, data were obtained with Array Analyze software (Active Motif), and data analysis and representation were performed with the GraphPad Prism 7 software. Outliers were curated manually and data were fitted to nonlinear regression [log(agonist) vs. response—variable slope (four parameters)]. […] Non-sigmoidal curves were denoted as not determined (N.D.) The pEC50 values were determined as the concentration of HDAC enzyme required for half-maximal binding signal.

[4] = biological target: T4, HDAC3/NCoR2 (Homo sapiens, UniProt O15379); details: HDAC3 µSPOT microarray, Fig. 3, X = Asuha; for HillSlope: Hill slope of dose-response fit; for Bottom (dose-response curve fit): fitted bottom plateau of binding signal; for Top (dose-response curve fit): fitted top plateau of binding signal;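 for all read-outs here: peptide spots on cellulose slides incubated with rising HDAC enzyme concentrations, imaged together, four-parameter logistic fit, EC50 is enzyme concentration giving half-maximal binding signal, two experiments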
T4 construct: HDAC3/NCoR2 (full length, C-terminal His tag, NCoR2 N-terminal GST tag); purchased BPS Bioscience 50003
T4 sequence (O15379 whole entry): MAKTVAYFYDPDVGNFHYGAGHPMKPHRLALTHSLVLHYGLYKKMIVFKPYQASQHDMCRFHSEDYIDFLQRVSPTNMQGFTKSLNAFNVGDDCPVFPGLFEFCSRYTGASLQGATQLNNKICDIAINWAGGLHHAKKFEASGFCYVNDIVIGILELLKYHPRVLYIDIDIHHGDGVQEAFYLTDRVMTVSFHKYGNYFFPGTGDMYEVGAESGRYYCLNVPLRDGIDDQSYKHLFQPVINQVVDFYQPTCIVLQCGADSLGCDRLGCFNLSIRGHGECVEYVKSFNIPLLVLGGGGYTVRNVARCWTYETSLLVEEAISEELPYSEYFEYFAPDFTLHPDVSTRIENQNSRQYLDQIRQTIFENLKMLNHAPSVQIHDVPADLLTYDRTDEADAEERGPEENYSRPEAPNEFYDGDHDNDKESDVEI
T4 sequence (Q9Y618 389-480 partner limits assumed): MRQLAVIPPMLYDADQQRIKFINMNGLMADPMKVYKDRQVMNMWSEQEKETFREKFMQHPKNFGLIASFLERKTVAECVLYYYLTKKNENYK
Method: as §1

Row | HillSlope [1] | Bottom (dose-response fit) [1] | Top (dose-response fit) [1] | Bottom (Value) [2] | Top (Value) [2] | HillSlope (Value) [2] | Bottom [3] | HillSlope [3] | Top [3] | HillSlope [4] | Bottom (dose-response curve fit) [4] | Top (dose-response curve fit) [4] | LogEC50 (M) ([1]; values are log10 of EC50 in M) | Compound
1 | 0.75 | 0.02 | 2.31 | 0.04 | 76.12 | 0.81 | 0.05 | 8.22 | 0.14 | 1.37 | 0.02 | 0.67 | – | H2A 19-34 (SRAGLQFPVGRVHRLL; UniProt P04908 20-35, looked up, fragment)
2 | 1.26 | 0.01 | 0.2 | 0.02 | 0.44 | 0.89 | 0.02 | 0.49 | 6.68 | 1.38 | 0 | 0.57 | – | H2A 49-64 (VYLAAVLEYLTAEILE; UniProt P0C0S8 50-65, looked up, fragment)
3 | 1.43 | 0.02 | 0.27 | 0.01 | 2.34 | 0.64 | 0.02 | 0.59 | 3.05 | 1.26 | 0 | 0.64 | – | H2A 55-70 (LEYLTAEILELAGNAA; UniProt P0C0S8 56-71, looked up, fragment)
4 | 0.92 | 0.02 | 1.87 | 0.03 | 0.16 | 2.23 | 0.01 | 0.19 | 6.07 | 1.96 | 0.02 | 0.22 | – | H2B 58-73 (AMGIMNSFVNDIFERI; UniProt P06899 59-74, looked up, fragment)
5 | 1.29 | 0.03 | 1.15 | 0.02 | 0.12 | 1.69 | -0.5 | 0.02 | 0.56 | 1.99 | 0.01 | 0.17 | – | H2B 61-76 (IMNSFVNDIFERIAGE; UniProt P62807 62-77, looked up, fragment)
6 | 1.09 | 0.03 | 1.21 | 0.01 | 12.73 | 0.33 | 0.02 | 0.72 | 1.17 | 1.87 | 0.01 | 0.22 | – | H2B 64-79 (SFVNDIFERIAGEASR; UniProt P62807 65-80, looked up, fragment)

More lines, now with the values behind:

Row | Compound | HillSlope [1] | Bottom (dose-response fit) [1] | Top (dose-response fit) [1] | Bottom (Value) [2] | Top (Value) [2] | HillSlope (Value) [2] | Bottom [3] | HillSlope [3] | Top [3] | HillSlope [4] | Bottom (dose-response curve fit) [4] | Top (dose-response curve fit) [4] | LogEC50 (M) ([1]; values are log10 of EC50 in M)
7 | CC[C@H](C)[C@H](NC(=O)[C@H](C)NC(=O)[C@H](CC(C)C)NC(=O)[C@H](CCC(N)=O)NC(=O)[C@H](CC(C)C)NC(=O)[C@H](Cc1c[nH]cn1)NC(=O)[C@H](CCCNC(=N)N)NC(=O)[C@@H]1CCCN1C(=O)[C@@H](NC(=O)[C@@H](NC(=O)[C@H](CCCNC(=N)N)NC(=O)[C@@H](NC(C)=O)[C@@H](C)O)[C@@H](C)CC)[C@@H](C)CC)C(=O)N[C@@H](CCCNC(=N)N)C(=O)N[C@@H](CC(N)=O)C(=O)N[C@@H](CC(=O)O)C(=O)N[C@@H](CCC(=O)O)C(N)=O [H2A 76-91] (Ac-TRIIPRHLQLAIRNDE-NH2) | 0.92 | 0.02 | 2.64 | 0.03 | 73.18 | 0.93 | 0.03 | 7.33 | 0.15 | 1.12 | 0.01 | 1.3 | –
8 | CC[C@H](C)[C@H](NC(=O)[C@H](CCC(=O)O)NC(=O)[C@H](CCCNC(=N)N)NC(=O)[C@H](CO)NC(=O)[C@@H](NC(=O)[C@@H](NC(=O)[C@@H](NC(C)=O)[C@@H](C)O)[C@@H](C)CC)[C@@H](C)O)C(=O)N[C@@H](CCC(N)=O)C(=O)N[C@H](C(=O)N[C@@H](C)C(=O)N[C@H](C(=O)N[C@@H](CCCNC(=N)N)C(=O)N[C@@H](CC(C)C)C(=O)N[C@@H](CC(C)C)C(=O)N[C@@H](CC(C)C)C(=O)N1CCC[C@H]1C(N)=O)C(C)C)[C@@H](C)O [H2B 88-103] (Ac-TITSREIQTAVRLLLP-NH2) | 1.19 | 0.05 | 1.11 | 0.04 | 0.21 | 1.75 | 0.03 | 10.85 | 0.09 | 1.33 | 0.01 | 0.74 | –
9 | H2A 16-31 (TRSSRAGLQFPVGRVH; microarray-immobilized; UniProt P0C0S8 17-32, looked up, fragment) | 1 | 0.03 | 1.15 | 0.04 | 3.35 | 1.17 | 0.05 | 6.81 | 0.12 | 0.97 | 0.01 | 0.73 | -7.63
10 | H2A 37-52 (GNYSERVGAGAPVYLA; UniProt P04908 38-53, looked up, fragment) | 0.92 | 0.01 | 6.54 | 0.01 | 3.9 | 0.79 | 0.01 | 7.44 | 0.07 | 0.78 | 0 | 0.79 | –
11 | H2A 40-55 (AERVGAGAPVYLAAVL; UniProt P0C0S8 41-56, looked up, fragment) | 0.82 | 0.02 | 5.13 | -0.05 | 0.06 | 0.08 | 0.01 | 2.67 | 0.08 | 1.44 | 0 | 0.3 | –
12 | H2A 46-61 (GAPVYLAAVLEYLTAE; UniProt P0C0S8 47-62, looked up, fragment) | 1.25 | 0.02 | 0.24 | 0.01 | 27.24 | 0.62 | 0.02 | 0.58 | 21.03 | 1.43 | 0.01 | 0.51 | –
13 | H2A 79-94 (IPRHLQLAIRNDEELN; UniProt P0C0S8 80-95, looked up, fragment) | 1.08 | 0.02 | 19.1 | 0.02 | 40.23 | 1.01 | 0.02 | 7.17 | 0.12 | 1.48 | 0.01 | 0.69 | –
14 | H2A 100-115 (VTIAQGGVLPNIQAVL; UniProt P0C0S8 101-116, looked up, fragment) | 1.46 | 0.02 | 0.26 | 0.02 | 9.23 | 0.88 | 0.02 | 0.63 | 7.44 | 1.35 | 0 | 0.72 | –

Source: article PMC7782793, “Hydroxamic acid-modified peptide microarrays for profiling isozyme-selective interactions and inhibition of histone deacetylases” (Nature Communications, 2021)
